US20190055312A1 (CELL MEDICA, published 2019)
Several values for one entry are separate records, joined by “and”; a condition that tells them apart may be missing. Equal entries are not always repeated.

What was measured:
[1] = target: T1, recombinant human (rh) PD-L1 Fc fusion (RnD Systems, USA, cat. no. 156-B7) (human, UniProt Q9NZQ7 19-239); assay: competition ELISA, rhPD-L1 Fc fusion coated, displacement of biotinylated PD-1 Fc fusion
T1 construct: Bought reagent; also called human PD-L1 Fc fusion; not shown: Fc part of the bought fusion
Procedure: Plates were blocked with 1% BSA and 0.05% Tween-20 in PBS, pH7.4. A serial dilution of IgGs was prepared, with eleven 1:3 dilutions starting at 1 mcg/mL, and added to plates. […] The ELISA was developed with TMB ELISA substrate solution (eBioscience, USA, cat. no. 00-4201-56).

[2] = target: T2, human PD-L1-His (BioVision, USA, cat. no. 7429) (human, UniProt Q9NZQ7 19-238, limits assumed); assay: KinExA in solution, human PD-L1-His titrated against constant IgG, n-curve analysis
T2 construct: Bought reagent without Fc tag, chosen to avoid avidity; also called His tagged PD-L1; not shown: His tag
Procedure: All steps were carried out at room temperature. […] This voltage signal is used to calculate the KD value and activity of the scFv using the “n-curve analysis” of the KinExA® Pro software version 4.1.9 or 4.2.10 (FIG. 5) using the option “titrant as analysis concentration reference”.
These mixtures were incubated for 5 hours.

[3] = target: T2, human PD-L1-His (BioVision, USA, cat. …); assay: ratio of KinExA KD values (scFv1 on PD-L1 Fc fusion as reference)
[4] = target: T3, rat PD-L1 Fc fusion (Sino Biological, China, cat. no. 80450-R02H) (Rattus norvegicus (Norway rat), UniProt D4AE25 19-239); assay: binding ELISA: coated rat PD-L1 Fc fusion, detected with Protein L-HRP
T3 construct: Bought reagent; not shown: Fc part (and any linker) of the bought Sino Biological 80450-R02H fusion
Procedure: Plates were blocked with 1% BSA and 0.5% Tween-20 in PBS, pH7.2. A serial dilution of scFvs was prepared with concentrations of 1 mcg/mL, 333 ng/mL and 111 ng/mL and added to plates. […] Development was with TMB ELISA substrate solution (eBioscience, USA, cat. no. 00-4201-56).

[5] = target: T4, mouse PD-L1 Fc fusion (Sino Biological, China, cat. no. 50010-M03H or RnD Systems, USA, cat. no. 1019-B7-100) (Mus musculus, UniProt Q9EP73 19-238); assay: binding ELISA, mouse PD-L1 Fc fusion coated, Protein L-HRP detection
T4 construct: Two bought reagents were used; not shown: Fc part of the bought fusion

[6] = target: T1, recombinant human (rh) PD-L1 Fc fusion …; assay: competition ELISA: coated rhCD80-His, scFv titrated against constant 50 nM rhPD-L1 Fc fusion, bound PD-L1 Fc detected with anti-human IgG Fc-HRP
Procedure: Plates were blocked with 1% BSA and 0.05% Tween-20 in PBS, pH7.4. […] This mixture was incubated with the CD80 coated plates for 2 hours at room temperature. […] The ELISA was developed with TMB ELISA substrate solution (eBioscience, USA, cat. no. 00-4201-56).

[7] = target: monkey PD-L1 Fc fusion (Sino Biological, China, cat. no. 90251-C02H) (Rhesus macacque (Macaca mulatta)) (UniProt F6PJN1); assay: KinExA in solution, room temperature, monkey PD-L1 Fc fusion titrated against constant scFv1, n-curve analysis
[8] = target: T5, rhPD-L2 Fc fusion (RnD Systems, USA, cat. no. 1224-PL) (human, UniProt Q9BQ51 20-219); assay: binding ELISA, rhPD-L2 Fc fusion coated, Protein L-HRP detection
T5 construct: Bought reagent; also called human PD-L2; not shown: Fc part of the bought fusion
T5 sequence (looked up): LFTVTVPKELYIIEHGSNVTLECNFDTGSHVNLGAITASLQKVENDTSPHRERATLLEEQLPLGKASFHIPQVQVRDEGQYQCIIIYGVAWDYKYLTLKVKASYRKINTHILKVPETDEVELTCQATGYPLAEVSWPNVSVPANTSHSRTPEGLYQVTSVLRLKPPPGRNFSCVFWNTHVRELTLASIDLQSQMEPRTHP
Procedure: (§1) Plates were blocked with 1% BSA and 0.5% Tween-20 in PBS, pH7.2. A serial dilution of scFvs was prepared with concentrations of 5, 1 and 0.2 mcg/mL and added to plates.

[9] = target: monkey PD-L1 Fc fusion (Sino Biological, China, cat. no. 90251-C02H) (Rhesus macacque (Macaca mulatta)) (UniProt F6PJN1); assay: ratio of KinExA KD values (human PD-L1 Fc fusion as reference)
[10] = target: T1, recombinant human (rh) PD-L1 Fc fusion …; assay: binding ELISA: coated rhPD-L1 Fc fusion, scFv1 in PBS without incubation, detected with Protein L-HRP
Procedure: (§2) After blocking with PBS, pH7.4 with, 1% BSA and 0.05% Tween-20, a series of 1:3 dilutions of 2.5 mcg/ml to 42 ng/mL serum/scFv samples was added to the ELISA plates in duplicate. […] The ELISA was developed with TMB ELISA substrate solution (eBioscience, USA, cat. no. 00-4201-56).

[11] = target: T1, recombinant human (rh) PD-L1 Fc fusion …; assay: competition ELISA: coated rhPD-L1 Fc fusion, scFv titrated, bound biotinylated PD-1 Fc fusion (15 ng/mL) detected with streptavidin-HRP
Procedure: Plates were blocked with 1% BSA and 0.05% Tween-20 in PBS, pH7.2. A serial dilution of scFvs was prepared, with eleven 1:3 dilutions starting at 1 mcg/mL, and added to plates. […] Background level was determined in the absence of PD-1. The ELISA was developed with TMB ELISA substrate solution (eBioscience, USA, cat. no. 00-4201-56).

[12] = target: T6, rhB7-H3 Fc fusion (RnD Systems, USA, cat. no. 1027-B3) (human, UniProt Q5ZPR3-2 29-245, limits assumed); assay: binding ELISA, rhB7-H3 Fc fusion coated, Protein L-HRP detection
T6 construct: Bought reagent; also called human B7-H3; not shown: Fc part of the bought fusion
T6 sequence (looked up): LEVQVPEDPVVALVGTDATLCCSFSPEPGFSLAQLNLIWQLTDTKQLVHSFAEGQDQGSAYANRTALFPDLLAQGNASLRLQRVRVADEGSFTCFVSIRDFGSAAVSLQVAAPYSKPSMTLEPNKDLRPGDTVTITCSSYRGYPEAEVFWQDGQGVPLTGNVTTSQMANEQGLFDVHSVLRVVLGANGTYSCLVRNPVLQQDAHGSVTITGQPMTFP
Procedure: as §1

[13] = target: T1, recombinant human (rh) PD-L1 Fc fusion …; assay: binding ELISA: coated rhPD-L1 Fc fusion, scFv1 in human serum, 4 h at 37 C, detected with Protein L-HRP
Procedure: as §2

[14] = target: T1, recombinant human (rh) PD-L1 Fc fusion …; assay: binding ELISA: coated rhPD-L1 Fc fusion, scFv1 in human serum, 20 h at 37 C, detected with Protein L-HRP
Procedure: as §2

[15] = target: T1, recombinant human (rh) PD-L1 Fc fusion …; assay: KinExA in solution, room temperature, PD-L1 Fc fusion titrated against constant scFv1, n-curve analysis
Procedure: (§3) Duplicate measurements were prepared for each data point. […] These mixtures were incubated for 5 hours. […] These mixtures were incubated for 9 hours. […] All steps were carried out at room temperature. […] This voltage signal is used to calculate the KD value and activity of the scFv using the “n-curve analysis” of the KinExA® Pro software version 4.1.9 or 4.2.10 (FIG. 5) using the option “titrant as analysis concentration reference”.

[16] = target: T1, recombinant human (rh) PD-L1 Fc fusion …; assay: binding ELISA: coated rhPD-L1 Fc fusion, scFv1 in human serum, 0 h at 37 C, detected with Protein L-HRP
Procedure: as §2

[17] = target: T7, natural form of PD-L1 expressed on the surface of ES-2 cells (human, UniProt Q9NZQ7 19-290); assay: KinExA, ES-2 cells titrated against 50 pM scFv1, room temperature
T7 construct: whole, on cells; also called cell surface PD-L1; human natural form of PD-L1
Procedure: as §3
These mixtures were incubated for 5 hours, centrifuged for 10 minutes at 3800×g, and supernatants were transferred to fresh tubes. […] All steps were carried out at room temperature.

[18] = target: PD-L1 expressing CHO cells (Promega, CS187103) (human, UniProt Q9NZQ7 19-290); assay: cell-based or functional assay
Sequence of PD-L1 expressing CHO cells (Promega, CS187103) (Q9NZQ7 19-290): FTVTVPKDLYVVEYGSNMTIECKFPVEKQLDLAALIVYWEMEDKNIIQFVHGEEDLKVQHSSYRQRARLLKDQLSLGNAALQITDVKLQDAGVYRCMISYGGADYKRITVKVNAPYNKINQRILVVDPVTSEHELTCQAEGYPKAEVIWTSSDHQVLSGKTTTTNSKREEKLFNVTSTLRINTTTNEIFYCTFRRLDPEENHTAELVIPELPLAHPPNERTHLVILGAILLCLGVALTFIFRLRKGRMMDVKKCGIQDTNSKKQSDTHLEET

T1 sequence (Q9NZQ7 19-239 limits assumed): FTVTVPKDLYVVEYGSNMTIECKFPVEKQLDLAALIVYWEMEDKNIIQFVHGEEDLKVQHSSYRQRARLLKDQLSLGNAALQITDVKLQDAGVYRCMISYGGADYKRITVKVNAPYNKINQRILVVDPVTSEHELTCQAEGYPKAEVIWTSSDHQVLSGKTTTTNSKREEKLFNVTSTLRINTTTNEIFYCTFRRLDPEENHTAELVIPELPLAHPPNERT
T2 sequence (Q9NZQ7 19-238 limits assumed): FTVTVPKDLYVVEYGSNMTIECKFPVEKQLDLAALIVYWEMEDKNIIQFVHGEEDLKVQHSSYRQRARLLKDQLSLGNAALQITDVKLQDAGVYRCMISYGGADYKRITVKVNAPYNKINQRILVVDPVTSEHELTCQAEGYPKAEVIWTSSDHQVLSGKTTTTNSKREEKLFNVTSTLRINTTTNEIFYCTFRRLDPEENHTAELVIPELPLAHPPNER
T7 sequence (Q9NZQ7 19-290): as the sequence (Q9NZQ7 19-290) above
T4 sequence (Q9EP73 19-238 limits assumed, stated change not applied): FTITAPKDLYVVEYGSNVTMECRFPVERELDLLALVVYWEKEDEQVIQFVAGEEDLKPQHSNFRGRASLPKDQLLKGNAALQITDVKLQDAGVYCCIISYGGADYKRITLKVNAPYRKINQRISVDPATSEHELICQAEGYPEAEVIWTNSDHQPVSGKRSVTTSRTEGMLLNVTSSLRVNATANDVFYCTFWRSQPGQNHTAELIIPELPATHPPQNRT
T3 sequence (D4AE25 entry or part of it R02H R02H limits assumed): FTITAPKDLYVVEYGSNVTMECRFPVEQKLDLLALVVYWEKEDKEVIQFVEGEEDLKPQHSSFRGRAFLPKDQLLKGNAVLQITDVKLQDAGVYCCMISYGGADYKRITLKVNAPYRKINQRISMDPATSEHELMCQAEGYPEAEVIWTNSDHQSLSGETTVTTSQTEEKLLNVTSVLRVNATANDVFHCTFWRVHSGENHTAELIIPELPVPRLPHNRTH

B1: IgG_1 (antibody, V domains shown)
VH: EVQLVESGGGLVQPGGSLRLSCTVSGIDLSSYTMGWVRQAPGKGLEWVGIISSGGRTYYASWAKGRFTISRDTSKNTVYLQMNSLRAEDTAVYYCARGRYTGYPYYFALWGQGTLVTVSS
VL: EIVMTQSPSTLSASVGDRVIITCQASEDIYSLLAWYQQKPGKAPKLLIYDASDLASGVPSRFSGSGSGAEFTLTISSLQPDDFATYYCQGNYGSSSSSSYGAVFGQGTKLEIKR
notes: Produced in CHO K1 cells; also called scFv1 converted into IgG format
IC50 [1]: 0.327 nM | Kd [2]: 0.00277 nM | fold tighter affinity than scFv1 to PD-L1 [3]: ~3 fold

B2: IgG_4 (antibody, V domains shown)
VH: EVQLVESGGGVVRPGGSLRLSCAASGFTFDDYGMTWVRQAPGRGLEWVSGIHWHGKRTGYADSVKGRFTISRDNAKKSLYLQMNSLKGEDTALYHCVRGGMSTGDWFDPWGQGTLVIVSS
VL: DIQMTQSPSSLSASLGDRVTITCRASQSINSYLNWYQQKPGKAPKLLIYVASSLQSGVPSRFSGSGSGTEFTLTISNLQPEDFATYYCQQSYSTPPITFGQGTRLEIKR
notes: Produced in CHO K1 cells; also called H2M8314N as described in WO2015/112805A1
IC50 [1]: 0.606 nM

B3: scFv1 (scFv)
scFv: EIVMTQSPSTLSASVGDRVIITCQASEDIYSLLAWYQQKPGKAPKLLIYDASDLASGVPSRFSGSGSGAEFTLTISSLQPDDFATYYCQGNYGSSSSSSYGAVFGQGTKLTVLGGGGGSGGGGSGGGGSGGGGSEVQLVESGGGLVQPGGSLRLSCTVSGIDLSSYTMGWVRQAPGKGLEWVGIISSGGRTYYASWAKGRFTISRDTSKNTVYLQMNSLRAEDTAVYYCARGRYTGYPYYFALWGQGTLVTVSS
notes: also called E. coli cell expressed scFv1
binding result [4]: no binding | binding result [5]: no binding (tested: 5 mcg/mL) | IC50 (read off the curve) [6]: 10 to 20 nM | Kd [7]: 0.0033 nM | binding result [8]: no binding (tested: 5 mcg/mL) | fold tighter affinity than to human PD-L1 [9]: 2.7 fold | EC50 (read off the curve) [10]: ~7 ng/mL | IC50 (read off the curve) [11]: ~1 nM | binding result [12]: no binding (tested: 5 mcg/mL) | EC50 (read off the curve) [13]: ~7 ng/mL | EC50 (read off the curve) [14]: ~7 ng/mL | Kd [15]: 0.0088 nM | EC50 (read off the curve) [16]: ~7 ng/mL | Kd [17]: 0.0128 nM | IC50, PD-1/PD-L1 blockade assay (luciferase, PD-L1 CHO cells and PD-1 Jurkat cells) [18]: 0.75 nM and 0.874 nM

B4: CHO cell expressed scFv1 (scFv)
scFv: B3 scFv
IC50, PD-1/PD-L1 blockade assay (luciferase, PD-L1 CHO cells and PD-1 Jurkat cells) [18]: 0.602 nM
